Three molecules from patent publication US20030199022, “Tamoxifen and 4-hydroxytamoxifen-activated system for regulated production of proteins in eukaryotic cells” (Board of Trustees of University of Illinois, published 2003) can be followed below.

The target of data set [1] is T1, ERα wild type (hERα) (Homo sapiens, UniProt P03372 SEQ:1-595).
T1 chain: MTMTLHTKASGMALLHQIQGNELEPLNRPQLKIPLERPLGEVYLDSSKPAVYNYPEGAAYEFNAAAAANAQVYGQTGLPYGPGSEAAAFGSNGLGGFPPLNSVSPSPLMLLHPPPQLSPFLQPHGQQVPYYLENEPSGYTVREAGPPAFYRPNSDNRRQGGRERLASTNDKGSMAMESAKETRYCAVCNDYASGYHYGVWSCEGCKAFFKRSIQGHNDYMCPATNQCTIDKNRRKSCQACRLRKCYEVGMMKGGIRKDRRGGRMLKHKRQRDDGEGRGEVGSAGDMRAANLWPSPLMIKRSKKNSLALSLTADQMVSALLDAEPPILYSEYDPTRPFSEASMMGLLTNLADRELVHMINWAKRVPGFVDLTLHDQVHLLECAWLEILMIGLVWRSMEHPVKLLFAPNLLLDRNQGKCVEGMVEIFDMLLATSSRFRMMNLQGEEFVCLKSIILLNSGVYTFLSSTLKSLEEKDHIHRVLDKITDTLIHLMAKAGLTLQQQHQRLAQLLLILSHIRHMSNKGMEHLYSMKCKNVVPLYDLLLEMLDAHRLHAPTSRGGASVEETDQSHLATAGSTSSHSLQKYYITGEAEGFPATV
Nature of the data set: EMSA; negligible binding. As to conditions: tags: CHO-S whole cell extract; chain copies: 2 stated; label: labeled. How it is done:
(§1) To compare binding of wild type hERα and the ER mutants to the EREs, protein titrations were performed. Increasing amounts of extracts containing equivalent levels of wild-type ER or ER mutants were incubated with the cERE. The ER:ERE complexes were then analyzed by EMSA.
(§2) To test this idea, synthetic probe (SEQ NO: 63) comprising a perfect palindrome with both half sites representing the imperfect ERE half site in the pS2 gene was prepared (FIG. 1A(ii), pS2 PAL).
(A gel shift assay detects complexes by their altered migration in electrophoresis.)

In data set [2] the target is ER4.3 (Homo sapiens, UniProt P03372 SEQ:1-595, E203W,Q214V,G215R,H216P,N217T). The experiment in a line: EMSA. As to conditions: chain copies: 2 stated; label: labeled. The procedure: as §1, §2
Data set [3] addresses ER4 (Homo sapiens, UniProt P03372 SEQ:1-595, E203W,Q214A,G215R,H216G). The experiment in a line: EMSA. The following applies: chain copies: 2 stated; label: labeled. The procedure: as §1, §2
Data set [4] addresses ER2 (Homo sapiens, UniProt P03372 SEQ:1-595, E203W,Q214A,G215R). The experiment in a line: EMSA. As to conditions: chain copies: 2 stated; label: labeled. The procedure:
as §1, §2

Data set [5] deals with ER3.1 (Homo sapiens, UniProt P03372 SEQ:1-595, E203W,Q214N,G215R,D218S). The experiment in a line: EMSA. The following applies: chain copies: 2 stated; label: labeled. The procedure: as §1, §2
In data set [6] the target is ER3M (Homo sapiens, UniProt P03372 SEQ:1-595, E203W,Q214A,H216G). The experiment in a line: EMSA; modestly lower than the other four mutants. The following applies: chain copies: 2 stated; label: labeled.
For data set [7], the target named is T2, ERα wild type (in cell) (Homo sapiens, UniProt P03372 SEQ:1-595).
T2 chain: T1 chain
The experiment in a line: cell_activity; HepG2, 10 nM MOX, 2.5 ng plasmid. The following applies: chain copies: 2 inferred.
Description: Fresh medium and (if any) hormones were added. For MCF-7 and 231 cells, transient transfection was carried out using the Tfx™-20 reagent (Promega; Madison, Wis.) according to the manufacturer's direction with minor changes. Briefly, 1×10⁵ cells were plated in each well of 12-well microplates one day before transfection. A 1:3 ratio of DNA to lipid was used. The DMEM/F12 medium without serum was used as carrier for the DNA-lipid mixture. After 1 hour incubation with the DNA-lipid-DMEM/F12 at 37° C., the cells were transferred to fresh DMEM/F12 supplemented with 10% CD-FBS, 50,000 U/I of penicillin, 50 mg/l streptomycin and hormones. […] The cells subjected to either transfection method were harvested 48 hours post-transfection. Reporter assays were performed by lysing the cells in situ with 250 μl of passive lysis buffer (Promega).

In data set [8] the target is ER4.3 (in cell) (Homo sapiens, UniProt P03372 SEQ:1-595, E203W,Q214V,G215R,H216P,N217T). The experiment in a line: cell_activity; HepG2, 10 nM OHT. The following applies: chain copies: 2 inferred.
The target in data set [9] is ER3M (in cell) (Homo sapiens, UniProt P03372 SEQ:1-595, E203W,Q214A,H216G). Nature of the data set: cell_activity; HepG2, 10 nM OHT. The following applies: chain copies: 2 inferred.

Where only a bound is given, the exact number is not on record here.

B1: pS2 PAL probe (dsDNA)
DNA 1: AGCTTCTCTATTGGGCCACTGTGGCCCTCATCTGAAGCT
DNA 2: AGCTTCAGATGAGGGCCACAGTGGCCCAATAGAGAAGCT
Take B1: the binding signal was over 100 fold weaker than cERE in data set [1]; > 30 fold higher affinity than WT in data set [2]; > 30 fold higher affinity than WT in data set [3]; > 30 fold higher affinity than WT in data set [4]; > 30 fold higher affinity than WT in [5]; > 30 fold higher affinity than WT in [6].

B2: ATL2/cERE (dsDNA)
DNA 1: AAGCTTAGGTCACTGTGACCTATCAAGATATCGAGATAGGTCACTGTGACCTATCGACTCTAGA
DNA 2: TCTAGAGTCGATAGGTCACAGTGACCTATCTCGATATCTTGATAGGTCACAGTGACCTAAGCTT
Turning to B2, in data set [7], the activity came to 41 fold induction.

B3: ATL4/PAL (dsDNA)
DNA 1: AAGCTTGGGCCACTGTGGCCCATCAAGATATCGAGATGGGCCACTGTGGCCCATCGACAGGAATTCACGGGCCACTGTGGCCCATCAAGATATCGAGATGGGCCACTGTGGCCCATCGACTCTAGA
DNA 2: TCTAGAGTCGATGGGCCACAGTGGCCCATCTCGATATCTTGATGGGCCACAGTGGCCCGTGAATTCCTGTCGATGGGCCACAGTGGCCCATCTCGATATCTTGATGGGCCACAGTGGCCCAAGCTT
Regarding B3, the activity in data set [8] and in data set [9] was over 80 fold induction throughout.
